Here are results for two substances from PMC4856805.

Holding throughout (test): SPR
The target in assay [1] is MEDI4212 2M2 (S239D/I332E) (human).
For assay [2], the target named is MEDI4212 3M (S239D/A330L/I332E) (human).
In assay [3] the target is MEDI4212 aFuc (human).
For assay [4], the target named is MEDI4212 wild-type (WT) monoclonal antibody (human).

Turning to Flag-tagged hFcγRIIIa (158V) (receptor), the Kd in assay [1] amounted to 7 nM; in assay [2] it was 7 nM; in assay [3] it was 50 nM; in assay [4], 502 nM.
Turning to “Flag-tagged hFcγRIIIa (158F) (from UniProt P08637 17-254) (receptor)”, the Kd was found to be 67 nM in assay [1], 36 nM in assay [2], 389 nM in assay [3] and 4960 nM in assay [4].
